Test results taken from US20050144661A1 (WASHINGTON UNIVERSITY, published 2005).

B1: CLuc-STAT1 (other, Photinus pyralis;human, UniProt P08659 398-550, looked up)
chain: MSGYVNNPEATNALIDKDGWLHSGDIAYWDEDEHFFIVDRLKSLIKYKGYQVAPAELESILLQHPNIFDAGVAGLPDDDAGELPAAVVVLEHGKTMTEKEIVDYVASQVTTAKKLRGGVVFVDEVPKGLTGKLDARKIREILIKAKKGGKSKLMSQWYELQQLDSKFLEQVHQLYDDSFPMEIRQYLAQWLEKQDWEHAANDVSFATIRFHDLLSQLDDQYSRFSLENNFLLQHNIRKSKRNLQDNFQEDPIQMSMIIYSCLKEERKILENAQRFNQAQSGNIQSTVMLDKQKELDSKVRNVKDKVMCIEHEIKSLEDLQDEYDFKCKTLQNREHETNGVAKSDQKQEQLLLKKMYLMLDNKRKEVVHKIIELLNVTELTQNALINDELVEWKRRQQSACIGGPPNACLDQLQNWFTIVAESLQQVRQQLKKLEELEQKYTYEHDPITKNKQVLWDRTFSLFQQLIQSSFVVERQPCMPTHPQRPLVLKTGVQFTVKLRLLVKLQELNYNLKVKVLFDKDVNERNTVKGFRKFNILGTHTKVMNMEESTNGSLAAEFRHLQLKEQKNAGTRTNEGPLIVTEELHSLSFETQLCQPGLVIDLETTSLPVVVISNVSQLPSGWASILWYNMLVAEPRNLSFFLTPPCARWAQLSEVLSWQFSSVTKRGLNVDQLNMLGEKLLGPNASPDGLIPWTRFCKENINDKNFPFWLWIESILELIKKHLLPLWNDGCIMGFISKERERALLKDQQPGTFLLRFSESSREGAITFTWVERSQNGGEPDFHAVEPYTKKELSAVTFPDIIRNYKVMAAENIPENPLKYLYPNIDKDHAFGKYYSRPKEAPEPMELDGPKGTGYIKTELISVSEVHPSRLQTTDNLLPMSPEEFDEVSRIVGSVEFDSMMNTV
modifications: unphosphorylated on Y701 in untreated cells (Western blot); phosphorylated after IFN-γ
notes: not shown: Gly/Ser linker with cloning sites

Key:
STAT1-NLuc = target: T1, STAT1-NLuc (human; Photinus pyralis, UniProt P42224 1-750; P08659 2-416 = luciferase, unphosphorylated on Y701 in untreated cells (Western blot); phosphorylated after IFN-γ); assay: LCI, live HEK-293 cells
T1 construct: not shown: Gly/Ser linker region reconstituted up to the BsiWI site

CLuc-STAT1 = target: B1; assay: LCI, live HEK-293 cells
CLuc(398-550)-FKBP [1] = target: T2, CLuc(398-550)-FKBP (Photinus pyralis; human, UniProt P08659 398-550 = luciferase; P62942 1-108); assay: LCI in mice with i.p. implants of transfected HEK-293 cells, with and without rapamycin
T2 construct: The printed ORF starts with an added Met; also called CLuc-FKBP; not shown: flexible Gly/Ser linker with multiple cloning site

Unfused CLuc = target: T3, Unfused CLuc (Photinus pyralis); assay: cell-based or functional assay
T3 chain: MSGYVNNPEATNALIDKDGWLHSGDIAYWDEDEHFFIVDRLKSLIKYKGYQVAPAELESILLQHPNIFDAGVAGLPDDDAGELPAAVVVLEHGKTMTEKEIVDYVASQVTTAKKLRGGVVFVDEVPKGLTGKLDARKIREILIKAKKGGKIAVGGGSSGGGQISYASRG

CLuc(398-550)-FKBP [2] = target: T2, CLuc(398-550)-FKBP; assay: cell-based or functional assay

B1: binds (STAT1-NLuc).

B2: Cdc25C-NLuc (other, human;Photinus pyralis, UniProt P30307 1-473, looked up)
chain: MSTELFSSTREEGSSGSGPSFRSNQRKMLNLLLERDTSFTVCPDVPRTPVGKFLGDSANLSILSGGTPKRCLDLSNLSSGEITATQLTTSADLDETGHLDSSGLQEVHLAGMNHDQHLMKCSPAQLLCSTPNGLDRGHRKRDAMCSSSANKENDNGNLVDSEMKYLGSPITTVPKLDKNPNLGEDQAEEISDELMEFSLKDQEAKVSRSGLYRSPSMPENLNRPRLKQVEKFKDNTIPDKVKKKYFSGQGKLRKGLCLKKTVSLCDITITQMLEEDSNQGHLIGDFSKVCALPTVSGKHQDLKYVNPETVAALLSGKFQGLIEKFYVIDCRYPYEYLGGHIQGALNLYSQEELFNFFLKKPIVPLDTQKRIIIVFHCEFSSERGPRMCRCLREEDRSLNQYPALYYPELYILKGGYRDFFPEYMELCEPQSYCPMHHQDHKTELLRCRSQSKVQEGERQLREQIALLVKDMSPEDAKNIKKGPAPFYPLEDGTAGEQLHKAMKRYALVPGTIAFTDAHIEVNITYAEYFEMSVRLAEAMKRYGLNTNHRIVVCSENSLQFFMPVLGALFIGVAVAPANDIYNERELLNSMNISQPTVVFVSKKGLQKILNVQKKLPIIQKIIIMDSKTDYQGFQSMYTFVTSHLPPGFNEYDFVPESFDRDKTIALIMNSSGSTGLPKGVALPHRTACVRFSHARDPIFGNQIIPDTAILSVVPFHHGFGMFTTLGYLICGFRVVLMYRFEEELFLRSLQDYKIQSALLVPTLFSFFAKSTLIDKYDLSNLHEIASGGAPLSKEVGEAVAKRFHLPGIRQGYGLTETTSAILITPEGDDKPGAVGKVVPFFEAKVVDLDTGKTLGVNQRGELCVRGPMIMSGYVNNPEATNALIDKDG
modifications: phosphorylated on S216 in the cells (Western blot, reduced by UCN-01)
notes: FRB of the NLuc fusion vector replaced by the Cdc25C open reading frame; not shown: Gly/Ser linker region reconstituted up to the BsiWI site
B2: no binding (CLuc-STAT1).

B3: S2035I FRB-NLuc (other)
chain: MEMWHEGLEEAIRLYFGERNVKGMFEVLEPLHAMMERGPQTLKETSFNQAYGRDLMEAQEWCRKYMKSGNVKDLTQAWDLYYHVFRRISKQQISYASRGGGSSGGGEDAKNIKKGPAPFYPLEDGTAGEQLHKAMKRYALVPGTIAFTDAHIEVDITYAEYFEMSVRLAEAMKRYGLNTNHRIVVCSENSLQFFMPVLGALFIGVAVAPANDIYNERELLNSMGISQPTVVFVSKKGLQKILNVQKKLPIIQKIIIMDSKTDYQGFQSMYTFVTSHLPPGFNEYDFVPESFDRDKTIALIMNSSGSTGLPKGVALPHRTACVRFSHARDPIFGNQIIPDTAILSVVPFHHGFGMFTTLGYLICGFRVVLMYRFEEELFLRSLQDYKIQSALLVPTLFSFFAKSTLIDKYDLSNLHEIASGGAPLSKEVGEAVAKRFHLPGIRQGYGLTETTSAILITPEGDDKPGAVGKVVPFFEAKVVDLDTGKTLGVNQRGELCVRGPMIMSGYVNNPEATNALIDKDG
notes: Point mutant of FRB-NLuc made by site directed mutagenesis; also called mutant FRB(S2035I); FRB(S20351)
B3: no binding (CLuc(398-550)-FKBP [1]).

B4: FRB-NLuc(2-416) (other, human;Photinus pyralis, UniProt P42345 2024-2113, looked up)
chain: HEMWHEGLEEASRLYFGERNVKGMFEVLEPLHAMMERGPQTLKETSFNQAYGRDLMEAQEWCRKYMKSGNVKDLTQAWDLYYHVFRRISKEDAKNIKKGPAPFYPLEDGTAGEQLHKAMKRYALVPGTIAFTDAHIEVNITYAEYFEMSVRLAEAMKRYGLNTNHRIVVCSENSLQFFMPVLGALFIGVAVAPANDIYNERELLNSMNISQPTVVFVSKKGLQKILNVQKKLPIIQKIIIMDSKTDYQGFQSMYTFVTSHLPPGFNEYDFVPESFDRDKTIALIMNSSGSTGLPKGVALPHRTACVRFSHARDPIFGNQIIPDTAILSVVPFHHGFGMFTTLGYLICGFRVVLMYRFEEELFLRSLQDYKIQSALLVPTLFSFFAKSTLIDKYDLSNLHEIASGGAPLSKEVGEAVAKRFHLPGIRQGYGLTETTSAILITPEGDDKPGAVGKVVPFFEAKVVDLDTGKTLGVNQRGELCVRGPMIMSGYVNNPEATNALIDKDG
notes: range 2024-2113;range 2-416; The printed ORF starts with an added Met (MEMWHEG...); not shown: flexible Gly/Ser linker with multiple cloning site
For B4, the binding result (CLuc-STAT1) was “no binding”, the “bioluminescence signal against FRB-NLuc/CLuc-FKBP without rapamycin” value (Unfused CLuc) was 3 fold lower and the “apparent Kd of rapamycin for induced FRB/FKBP association, bioluminescence readout in intact HEK-293 cells” value (CLuc(398-550)-FKBP [2]) was 1.5 nM. The “apparent Ki of FK506 for inhibition of rapamycin-induced luciferase activity in situ (rapamycin 80 nM)” value (CLuc(398-550)-FKBP [2]) was 4.2 nM, the “bioluminescence induction by rapamycin (80 nM) in cell lysates over untreated lysates, within 15 minutes” value (CLuc(398-550)-FKBP [2]) was 18 fold and the “drug-specific induction of bioluminescence over background” value (CLuc(398-550)-FKBP [2]) was 1200 fold. The “maximal mean bioluminescence signal over untransfected cells, with rapamycin, live HEK-293 cells” value (CLuc(398-550)-FKBP [2]) was 72 fold, the “maximum bioluminescence in rapamycin-treated mice over untreated mice (i.p. cell implants)” value (CLuc(398-550)-FKBP [2]) was 23 fold and the “mean maximal increase in bioluminescence with rapamycin (80 nM) over untreated transfected cells, within 4-6 hrs” value (CLuc(398-550)-FKBP [2]) was 6 fold.

B5: CLuc-14-3-3ε (other, UniProt P08659 398-550, looked up)
chain: MSGYVNNPEATNALIDKDGWLHSGDIAYWDEDEHFFIVDRLKSLIKYKGYQVAPAELESILLQHPNIFDAGVAGLPDDDAGELPAAVVVLEHGKTMTEKEIVDYVASQVTTAKKLRGGVVFVDEVPKGLTGKLDARKIREILIKAKKGGKSKLMDDREDLVYQAKLAEQAERYDEMVESMKKVAGMDVELTVEERNLLSVAYKNVIGARRASWRIISSIEQKEENKGGEDKLKMIREYRQMVETELKLICCDILDVLDKHLIPAANTGESKVFYYKMKGDYHRYLAEFATGNDRKEAAENSLVAYKAASDIAMTELPPTHPIRLGLALNFSVFYYEILNSPDRACRLAKAAFDDAIAELDTLSEESYKDSTLIMQLLRDNLTLWTSDMQGDGEEQNKEALQDVEDENQ
notes: FKBP of the CLuc fusion vector replaced by 14-3-3ε; not shown: Gly/Ser linker with cloning sites
B5: no binding (STAT1-NLuc).

B6: Unfused NLuc (2-416) (other, Photinus pyralis, UniProt P08659 2-416, looked up)
chain: EDAKNIKKGPAPFYPLEDGTAGEQLHKAMKRYALVPGTIAFTDAHIEVNITYAEYFEMSVRLAEAMKRYGLNTNHRIVVCSENSLQFFMPVLGALFIGVAVAPANDIYNERELLNSMNISQPTVVFVSKKGLQKILNVQKKLPIIQKIIIMDSKTDYQGFQSMYTFVTSHLPPGFNEYDFVPESFDRDKTIALIMNSSGSTGLPKGVALPHRTACVRFSHARDPIFGNQIIPDTAILSVVPFHHGFGMFTTLGYLICGFRVVLMYRFEEELFLRSLQDYKIQSALLVPTLFSFFAKSTLIDKYDLSNLHEIASGGAPLSKEVGEAVAKRFHLPGIRQGYGLTETTSAILITPEGDDKPGAVGKVVPFFEAKVVDLDTGKTLGVNQRGELCVRGPMIMSGYVNNPEATNALIDKDG
For B6, the “background bioluminescence against the FRB-NLuc/CLuc-FKBP pair in the absence of rapamycin” value (Unfused CLuc) was 12 fold less and the “background bioluminescence against the FRB-NLuc/CLuc-FKBP pair in the presence of rapamycin” value (Unfused CLuc) was 100 fold less.
